One block for each molecule: values may come before it. Where a SMILES comes first, the peptide text is derived from it. Bridges are numbered along the chain shown (N, C = ends). Where no end group is shown, it is not given here.
What was measured:
IDE [1] = molecular target: T1, IDE (Homo sapiens, UniProt P14735); assay: IDE protease activity assay with FRET1 substrate; type: biochemical; conditions: Ki converted from IC50 with the Cheng-Prusoff equation
T1 construct: made in house; host or cells: bacteria
T1 sequence (P14735 1-1019): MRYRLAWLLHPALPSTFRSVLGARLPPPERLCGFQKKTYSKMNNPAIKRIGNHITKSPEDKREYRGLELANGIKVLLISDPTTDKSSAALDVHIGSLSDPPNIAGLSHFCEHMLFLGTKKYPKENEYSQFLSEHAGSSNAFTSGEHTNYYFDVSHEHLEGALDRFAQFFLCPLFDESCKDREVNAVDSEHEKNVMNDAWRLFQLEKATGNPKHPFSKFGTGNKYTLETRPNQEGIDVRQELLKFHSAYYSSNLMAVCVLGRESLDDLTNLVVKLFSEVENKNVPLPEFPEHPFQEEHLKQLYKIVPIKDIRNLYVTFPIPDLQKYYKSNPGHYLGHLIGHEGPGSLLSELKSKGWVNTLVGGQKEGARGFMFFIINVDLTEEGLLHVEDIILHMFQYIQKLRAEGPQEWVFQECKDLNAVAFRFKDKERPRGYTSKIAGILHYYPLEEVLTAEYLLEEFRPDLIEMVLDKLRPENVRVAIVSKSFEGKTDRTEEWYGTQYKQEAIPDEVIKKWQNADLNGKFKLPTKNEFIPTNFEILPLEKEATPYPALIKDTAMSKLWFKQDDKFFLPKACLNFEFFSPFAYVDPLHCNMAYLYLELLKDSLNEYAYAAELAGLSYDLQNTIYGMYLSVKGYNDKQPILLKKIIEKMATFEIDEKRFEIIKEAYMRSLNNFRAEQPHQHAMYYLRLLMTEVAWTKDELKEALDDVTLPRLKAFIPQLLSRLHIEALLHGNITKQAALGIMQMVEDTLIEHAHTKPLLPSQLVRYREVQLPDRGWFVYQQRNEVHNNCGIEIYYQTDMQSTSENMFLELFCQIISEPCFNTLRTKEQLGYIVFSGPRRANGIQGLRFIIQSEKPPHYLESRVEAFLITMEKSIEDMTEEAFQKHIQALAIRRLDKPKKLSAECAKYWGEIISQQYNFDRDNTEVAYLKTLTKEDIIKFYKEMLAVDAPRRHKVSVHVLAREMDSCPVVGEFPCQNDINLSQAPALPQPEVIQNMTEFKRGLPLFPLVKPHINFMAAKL

IDE [2] = molecular target: T1, IDE; assay: IDE protease activity assay, insulin degradation quantified by ELISA; type: biochemical; conditions: substrate recombinant human insulin; Ki converted from IC50 with the Cheng-Prusoff equation; read-out: Ki Insulin
Method: To assess the extent to which these peptide sequences inhibit IDE, we quantified their potency in protease activity assays using recombinant human IDE and two different substrates: FRET1, a fluorogenic peptide (45), and recombinant human insulin.
Degradation Assays—IDE activity was quantified by monitoring the degradation of (7-methoxycoumarin-4-yl)acetic acid-[…](2,4-dinitrophenyl) (FRET1, 5 μM) (49,55), fluoresceinated and biotinylated amyloid β-protein (FAβB; 500 nM) or recombinant human insulin (50 nM) in PBS supplemented with 0.05% BSA. FRET1 degradation was measured by changes in fluorescence (λex=340 nm, λem=420 nm); FAβB degradation was monitored by fluorescence polarization (λex=488 nm, λem=525 nm), as described (56); and insulin degradation was quantified by ELISA. In vitro activity assays incorporated recombinant human IDE (1 nM) purified from bacteria (35). For quantitation of insulin degradation in primary murine skin fibroblasts, cells (1×10^5/well) were plated in 96-well plates and maintained in DMEM supplemented with 10% fetal bovine serum (FBS), 2 mM glutamine, penicillin and streptomycin. After addition of insulin (10 nM or 100 nM), samples of conditioned medium were removed daily and quickly frozen, then insulin levels were quantified in parallel by ELISA according to manufacturer's recommendations (Crystal Chem, Downers Grove, Ill., USA). Assessment of the activity of P12-3A against a variety of matrix-metalloproteases was conducted using the Matrix Metalloproteinase (MMP) Inhibitor Profiling Kit, Fluorometric RED (Enzo Life Sciences, Inc., Farmingdale, N.Y., USA) according to manufacturer's recommendations using the broad-spectrum MMP inhibitor, NNGH, as a positive control.

[3] = molecular target: T2, recombinant human insulin-degrading enzyme (IDE) (human, UniProt P14735 42-1019, limits assumed); assay: IDE activity assay, insulin substrate (ELISA)
T2 construct: Used at 1 nM in the in vitro activity assays; immobilised on plates for phage panning
T2 sequence (looked up): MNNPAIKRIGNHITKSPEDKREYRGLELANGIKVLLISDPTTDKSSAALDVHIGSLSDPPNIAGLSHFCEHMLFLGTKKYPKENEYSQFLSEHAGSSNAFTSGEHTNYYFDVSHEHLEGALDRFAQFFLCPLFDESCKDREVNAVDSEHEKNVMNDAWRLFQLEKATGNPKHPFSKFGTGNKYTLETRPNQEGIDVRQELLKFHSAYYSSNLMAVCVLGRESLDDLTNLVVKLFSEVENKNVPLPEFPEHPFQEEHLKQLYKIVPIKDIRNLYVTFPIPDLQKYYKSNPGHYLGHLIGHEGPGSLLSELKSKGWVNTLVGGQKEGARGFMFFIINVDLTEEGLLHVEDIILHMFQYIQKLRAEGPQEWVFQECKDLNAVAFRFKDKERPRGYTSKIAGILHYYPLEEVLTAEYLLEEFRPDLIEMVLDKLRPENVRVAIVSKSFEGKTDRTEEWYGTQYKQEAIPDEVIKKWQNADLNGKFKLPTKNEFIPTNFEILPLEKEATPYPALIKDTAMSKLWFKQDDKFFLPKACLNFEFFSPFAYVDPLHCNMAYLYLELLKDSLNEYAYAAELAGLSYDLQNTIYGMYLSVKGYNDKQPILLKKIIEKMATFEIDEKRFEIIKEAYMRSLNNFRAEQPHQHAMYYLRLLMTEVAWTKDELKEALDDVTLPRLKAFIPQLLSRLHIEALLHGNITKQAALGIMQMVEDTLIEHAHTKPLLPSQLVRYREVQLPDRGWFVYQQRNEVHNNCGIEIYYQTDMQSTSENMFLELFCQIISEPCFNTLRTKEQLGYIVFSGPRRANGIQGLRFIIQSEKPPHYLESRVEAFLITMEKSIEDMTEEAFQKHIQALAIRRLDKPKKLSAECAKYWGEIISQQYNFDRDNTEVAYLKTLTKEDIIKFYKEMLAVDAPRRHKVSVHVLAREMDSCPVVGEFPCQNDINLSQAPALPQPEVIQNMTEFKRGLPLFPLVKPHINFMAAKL

[4] = molecular target: T2, recombinant human insulin-degrading …; assay: IDE activity assay, FRET1 substrate
[5] = molecular target: T2, recombinant human insulin-degrading …; assay: IDE activity assay, FRET1 substrate; IC50 converted to Ki (Cheng-Prusoff)

Ki (IDE [1]): 112 ± 6 µM | Ki (IDE [2]): 3.7 ± 0.7 µM
Molecule: CC[C@H](C)[C@@H]1NC(=O)[C@H](CO)NC(=O)[C@H](Cc2c[nH]c3ccccc23)NC(=O)[C@H](Cc2c[nH]c3ccccc23)NC(=O)[C@H](CO)NC(=O)[C@@H](NC(=O)[C@H](C)N)CSSC[C@@H](C(=O)NCC(=O)O)NC(=O)[C@H](CC(C)C)NC(=O)[C@H](Cc2c[nH]cn2)NC1=O [Peptide C7C-1] (H-ACSWWSIHLCG-OH; disulfide 2-10)

Ki (IDE [1]): 5 ± 0.3 µM | Ki (IDE [2]): 1.3 ± 0.2 µM
Molecule: CC(C)[C@H](N)C(=O)N[C@@H](Cc1c[nH]cn1)C(=O)N[C@@H](Cc1c[nH]c2ccccc12)C(=O)N[C@@H](CC(=O)O)C(=O)N[C@@H](Cc1ccccc1)C(=O)N[C@@H](CCCNC(=N)N)C(=O)N[C@@H](CCC(N)=O)C(=O)N[C@@H](Cc1c[nH]c2ccccc12)C(=O)N[C@@H](Cc1c[nH]c2ccccc12)C(=O)N[C@@H](CCC(N)=O)C(=O)N1CCC[C@H]1C(=O)N[C@@H](CO)C(N)=O [Peptide P12-1A] (H-VHWDFRQWWQPS-NH2)

Ki (IDE [1]): 41 ± 6.4 µM | Ki (IDE [2]): 7 ± 1.7 µM
Molecule: CC(C)[C@H](N)C(=O)N[C@@H](Cc1c[nH]cn1)C(=O)N[C@@H](Cc1c[nH]c2ccccc12)C(=O)N[C@@H](CC(=O)O)C(=O)N[C@@H](Cc1ccccc1)C(=O)N[C@@H](CCCNC(=N)N)C(=O)N[C@@H](CCC(N)=O)C(=O)N[C@@H](Cc1c[nH]c2ccccc12)C(N)=O [Peptide P12-1B] (H-VHWDFRQW-NH2)

Ki (IDE [1]): 7.7 ± 0.7 µM | Ki (IDE [2]): 0.8 ± 0.04 µM
Molecule: CC(C)[C@H](N)C(=O)N[C@@H](Cc1c[nH]cn1)C(=O)N[C@@H](Cc1c[nH]c2ccccc12)C(=O)N[C@@H](CC(=O)O)C(=O)N[C@@H](Cc1ccccc1)C(=O)N[C@@H](CCCNC(=N)N)C(=O)N[C@@H](CCC(N)=O)C(=O)N[C@@H](Cc1c[nH]c2ccccc12)C(=O)N[C@@H](Cc1c[nH]c2ccccc12)C(=O)N[C@@H](CCC(N)=O)C(=O)N1CCC[C@H]1C(=O)N[C@@H](CO)C(=O)O [Peptide P12-1] (H-VHWDFRQWWQPS-OH)

Ki (IDE [1]): 39 ± 20 µM
Molecule: CC(C)C[C@H](NC(=O)[C@H](CO)NC(=O)[C@@H](N)CCC(N)=O)C(=O)N1CCC[C@H]1C(=O)N[C@@H](Cc1c[nH]c2ccccc12)C(=O)N[C@@H](CS)C(=O)N[C@@H](Cc1ccc(O)cc1)C(=O)N1CCC[C@H]1C(N)=O [Peptide P12-3B] (H-QSLPWCYP-NH2)

Ki (IDE [1]): 4.2 ± 1.3 µM | Ki (IDE [2]): 2.6 ± 0.7 µM
Molecule: CC[C@H](C)[C@H](NC(=O)[C@@H]1CCCN1C(=O)[C@H](CO)NC(=O)[C@@H](N)Cc1c[nH]c2ccccc12)C(=O)N[C@@H](CO)C(=O)NCC(=O)N[C@@H](CCCCN)C(=O)N[C@@H](Cc1ccccc1)C(=O)N[C@@H](Cc1ccccc1)C(=O)N[C@@H](CCC(N)=O)C(=O)N[C@@H](CCCNC(=N)N)C(=O)N[C@@H](Cc1ccccc1)C(N)=O [Peptide P12-4A] (H-WSPISGKFFQRF-NH2)

Ki (IDE [1]): 3.9 ± 0.5 µM | Ki (IDE [2]): 1.5 ± 0.3 µM
Molecule: CC[C@H](C)[C@H](NC(=O)[C@@H]1CCCN1C(=O)[C@H](CO)NC(=O)[C@@H](N)Cc1c[nH]c2ccccc12)C(=O)N[C@@H](CO)C(=O)NCC(=O)N[C@@H](CCCCN)C(=O)N[C@@H](Cc1ccccc1)C(=O)N[C@@H](Cc1ccccc1)C(=O)N[C@@H](CCC(N)=O)C(=O)N[C@@H](CCCNC(=N)N)C(=O)N[C@@H](Cc1ccccc1)C(=O)O [Peptide P12-4] (H-WSPISGKFFQRF-OH)

Ki [3]: > 10 µM | Ki [4]: > 500 µM
Molecule: Ac-FPMPSRPH-NH2 [P12-2D]

Ki [3]: > 10 µM | Ki [4]: > 500 µM
Molecule: Ac-SGKFFQRF [P12-4C]

Ki [3]: > 10 µM | Ki [4]: > 500 µM
Molecule: LNFPMPSR-NH2 [P12-2B]

Ki [3]: > 10 µM | Ki [4]: > 500 µM
Molecule: Ac-MPSRPHSS [P12-2C]

Ki [3]: > 10 µM
B1: P12-3C (peptide)
peptide: Ac-WCYPHCVT-OH
modifications: cysteine pairing not given here
notes: also called N-terminally truncated variant of P12-3

Ki [5]: 139 µM | Ki [3]: > 10 µM
B2: P12-1C (peptide)
peptide: Ac-FRQWWQPS
notes: also called N-terminally truncated variant of P12-1

Ki [3]: > 10 µM | Ki [4]: > 500 µM
B3: C7C-2A (peptide)
peptide: ACNAGHLSQCG-NH2
modifications: disulfide 2-10 (inferred)
notes: also called amidated derivative of C7C-2

Ki [3]: > 10 µM
B4: P12-3B (peptide)
peptide: QSLPWCYP-NH2
notes: also called C-terminally truncated variant of P12-3

Ki [3]: > 10 µM | Ki [4]: > 100 µM
Molecule: LNFPMPSRPHSS [P12-2]

Ki [3]: > 10 µM | Ki [4]: > 500 µM
Molecule: WSPISGKF-NH2 [P12-4B]

Ki [3]: > 10 µM | Ki [4]: > 100 µM
Molecule: LNFPMPSRPHSS-NH2 [P12-2A]

Ki [3]: > 10 µM | Ki [4]: > 500 µM
Molecule: Ac-PISGKFFQ-NH2 [P12-4D]

Ki [3]: > 10 µM | Ki [4]: > 500 µM
B5: C7C-2 (peptide)
peptide: ACNAGHLSQCG
modifications: disulfide 2-10 (inferred)
notes: the synthesized peptide has one C-terminal glycine

Ki [3]: > 10 µM | Ki [4]: > 100 µM
Molecule: ACSWWSIHLCGGG (disulfide 2-10 (inferred)) [C7C-1B]

From US11555055B2, “Peptide inhibitors of insulin-degrading enzyme” (The Regents of the University of California, priority 2017, dated 2023)
